This note sets out measurements from US20250043028A1 (Hoffmann-La Roche, published 2025).

For assay [1], the target named is T1, human CD3 expressed on Jurkat cells (human, UniProt P07766 23-207).
T1 construct: CD3 as part of the T cell receptor complex on Jurkat cells; also called huCD3; human CD3 on cells
The assay can be described thus: flow cytometry on Jurkat cells; CL/CH1 exchange; CD3 on Jurkat cells. As to the method: (§1) Binding of the different bispecific constructs to CD3 on Jurkat cells (ATCC #TIB-152), and the respective tumor antigen on target cells, was determined by FACS. Briefly, cells were harvested, counted and checked for viability. 0.15-0.2 million cells per well (in PBS containing 0.1% BSA; 90 μl) were plated in a round-bottom 96-well plate and incubated with the indicated concentration of the bispecific constructs and corresponding IgG controls (10 μl) for 30 min at 4° C. For a better comparison, all constructs and IgG controls were normalized to same molarity. […] Bound constructs were detected using a FACSCantoII (Software FACS Diva). The “(scFv)₂” molecule was detected using a FITC-conjugated anti-His antibody (Lucerna, #RHIS-45F-Z). […] Unless otherwise indicated, cells were fixed with 100 μl/well fixation buffer (BD #554655) for 15 min at 4° C. in the dark, centrifuged for 6 min at 400×g and kept in 200 μl/well PBS containing 0.1% BSA until the samples were measured with FACS CantoII. EC50 values were calculated using the GraphPad Prism software.
(§2) As a control, the equivalent maximum concentration of the corresponding IgGs and the background staining due to the labeled 2ndary antibody (goat anti-human FITC-conjugated AffiniPure F(ab′)₂ Fragment, Fcγ Fragment-specific, Jackson Immuno Research Lab #109-096-098) were assessed as well.
On the technique in general: In flow cytometry, cells or beads pass a laser one at a time.

Assay [2] addresses T2, human CEA expressed on tumor cells (LS-174T, MKN-45, MC38-huCEA) (human, UniProt P06731 35-685).
T2 sequence (looked up): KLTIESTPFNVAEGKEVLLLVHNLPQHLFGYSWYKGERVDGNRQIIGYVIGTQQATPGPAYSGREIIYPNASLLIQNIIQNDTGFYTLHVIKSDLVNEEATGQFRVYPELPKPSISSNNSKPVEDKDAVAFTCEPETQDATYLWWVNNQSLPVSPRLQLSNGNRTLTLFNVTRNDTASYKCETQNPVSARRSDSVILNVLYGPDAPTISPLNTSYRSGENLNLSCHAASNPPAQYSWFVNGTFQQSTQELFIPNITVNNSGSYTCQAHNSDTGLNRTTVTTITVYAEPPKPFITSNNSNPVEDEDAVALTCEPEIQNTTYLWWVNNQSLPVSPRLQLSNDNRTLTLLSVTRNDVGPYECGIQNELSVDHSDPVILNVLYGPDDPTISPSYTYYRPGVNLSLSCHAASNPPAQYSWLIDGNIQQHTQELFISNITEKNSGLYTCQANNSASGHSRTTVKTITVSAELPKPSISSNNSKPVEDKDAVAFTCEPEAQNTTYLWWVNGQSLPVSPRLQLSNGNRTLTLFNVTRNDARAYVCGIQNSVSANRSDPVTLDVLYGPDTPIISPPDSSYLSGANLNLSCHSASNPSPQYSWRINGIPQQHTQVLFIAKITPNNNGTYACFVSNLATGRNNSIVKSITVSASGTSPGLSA
The assay can be described thus: cell-based or functional assay.

Assay [3] deals with T2, human CEA expressed on tumor cells …. The assay can be described thus: flow cytometry on LS-174T cells; CL/CH1 exchange; CEA on LS-174T cells. The method, then: as §1, §2
The target is the same in assay [4]. In words: flow cytometry on LS-174T cells; VL/VH exchange; CEA on LS-174T cells. The method, then:
as §1, §2

The target in assay [5] is T1, human CD3 expressed on Jurkat cells. In words: flow cytometry on Jurkat cells; VL/VH exchange; CD3 on Jurkat cells. The method, then: as §1, §2
Assay [6] deals with T3, muFcγRIV-aviHis-biotin (murine, UniProt A0A0B4J1G0 21-203, Biotin on the lysine of the Avi tag (tag left out of the letters); C-terminal His tag used for capture by the anti-Penta His antibody).
T3 construct: Captured on an anti-Penta His antibody on a CM5 chip; also called murine FcγRIV; not shown: Avi-His tag (and any linker to it)
T3 sequence: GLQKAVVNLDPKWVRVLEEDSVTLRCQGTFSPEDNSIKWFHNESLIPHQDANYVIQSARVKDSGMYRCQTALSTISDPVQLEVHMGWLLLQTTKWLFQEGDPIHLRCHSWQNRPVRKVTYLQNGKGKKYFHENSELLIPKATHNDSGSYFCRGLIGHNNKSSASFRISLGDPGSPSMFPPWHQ
The assay can be described thus: SPR Biacore T100, 25 °C, kinetic fit; receptor captured via anti-Penta His. The method, then: (§3) For analyzing interaction of different Fc-variants with human FcγRIIIa-V158 and murine FcγRIV direct coupling of around 6,500 resonance units (RU) of the anti-Penta His antibody (Qiagen) is performed on a CM5 chip at pH 5.0 using the standard amine coupling kit (Biacore, Freiburg/Germany). HuFcγRIIIa-V158-K6H6 and muFcγRIV-aviHis-biotin are captured for 60 s at 4 and 10 nM respectively.
(§4) Constructs with different Fc-mutations are passed through the flow cells for 120 s at a concentration of 1000 nM with a flow rate of 30 μl/min. The dissociation is monitored for 220 s. Bulk refractive index differences are corrected for by subtracting the response obtained in a reference flow cell. Here, the Fc-variants are flown over a surface with immobilized anti-Penta His antibody but on which HBS-EP has been injected rather than HuFcγRIIIa-V158-K6H6 or muFcγRIV-aviHis-biotin. Affinity for human FcγRIIIa-V158 and murine FcγRIV was determined for wild-type Fc using a concentration range from 500-4000 nM.
(§5) The steady state response was used to derive the dissociation constant KD by non-linear curve fitting of the Langmuir binding isotherm. Kinetic constants were derived using the Biacore T100 Evaluation Software (vAA, Biacore AB, Uppsala/Sweden), to fit rate equations for 1:1 Langmuir binding by numerical integration.
(SPR reads the build-up and loss of mass on a sensor chip optically.)

The target in assay [7] is T4, HuFcγRIIIa-V158-K6H6 (human, UniProt P08637 17-208).
T4 construct: Captured on an anti-Penta His antibody on a CM5 chip; also called human FcγRIIIa-V158; human FcγRIIIa; not shown: K6H6 tag
In words: SPR Biacore T100, 25 °C, kinetic fit (value in brackets, not explained); receptor captured via anti-Penta His. As to the method: as §3, §4, §5

Assay [8] addresses T4, HuFcγRIIIa-V158-K6H6. The assay can be described thus: SPR Biacore T100, 25 °C, steady state; receptor captured via anti-Penta His, construct 500-4000 nM. The method, then: as §3, §4, §5
For assay [9], the target named is T3, muFcγRIV-aviHis-biotin. Described as above. The method, then: as §3, §4, §5
Assay [10] deals with T4, HuFcγRIIIa-V158-K6H6. The assay can be described thus: SPR Biacore T100, 25 °C, kinetic fit, one concentration (1000 nM); receptor captured via anti-Penta His. As to the method:
as §3, §4, §5

Assay [11] has as its target T5, human MCSP expressed on tumor cells (Colo-38, WM266-4, MV-3) (human, UniProt Q6UVK1 30-2322).
T5 construct: whole, on cells; also called huMCSP; Melanoma-associated Chondroitin Sulfate Proteoglycan
The assay can be described thus: FACS on Colo-38 cells, dose titration. As to the method: as §1
In another experiment, the purified “2+1 IgG scFab” bispecific construct (SEQ ID NOs 5, 17, 19) and the corresponding anti human MCSP IgG were analyzed by flow cytometry for dose-dependent binding to human MCSP on Colo-38 human melanoma cells, to determine whether the bispecific construct binds to MCSP via one or both of its “arms”.

T4 sequence (P08637 17-208 F176V): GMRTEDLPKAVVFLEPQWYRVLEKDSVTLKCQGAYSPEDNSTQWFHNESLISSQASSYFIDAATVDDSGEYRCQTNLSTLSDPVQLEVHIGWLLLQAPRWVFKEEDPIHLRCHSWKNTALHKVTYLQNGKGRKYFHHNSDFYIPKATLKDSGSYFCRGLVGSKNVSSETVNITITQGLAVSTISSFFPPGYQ
T1 sequence (P07766 23-207 limits assumed): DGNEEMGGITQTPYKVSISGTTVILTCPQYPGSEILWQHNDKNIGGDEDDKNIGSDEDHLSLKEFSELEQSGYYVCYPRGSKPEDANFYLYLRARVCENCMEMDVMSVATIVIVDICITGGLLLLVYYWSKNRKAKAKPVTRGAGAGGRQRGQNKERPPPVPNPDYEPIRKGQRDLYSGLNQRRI
T5 sequence (Q6UVK1 30-2322): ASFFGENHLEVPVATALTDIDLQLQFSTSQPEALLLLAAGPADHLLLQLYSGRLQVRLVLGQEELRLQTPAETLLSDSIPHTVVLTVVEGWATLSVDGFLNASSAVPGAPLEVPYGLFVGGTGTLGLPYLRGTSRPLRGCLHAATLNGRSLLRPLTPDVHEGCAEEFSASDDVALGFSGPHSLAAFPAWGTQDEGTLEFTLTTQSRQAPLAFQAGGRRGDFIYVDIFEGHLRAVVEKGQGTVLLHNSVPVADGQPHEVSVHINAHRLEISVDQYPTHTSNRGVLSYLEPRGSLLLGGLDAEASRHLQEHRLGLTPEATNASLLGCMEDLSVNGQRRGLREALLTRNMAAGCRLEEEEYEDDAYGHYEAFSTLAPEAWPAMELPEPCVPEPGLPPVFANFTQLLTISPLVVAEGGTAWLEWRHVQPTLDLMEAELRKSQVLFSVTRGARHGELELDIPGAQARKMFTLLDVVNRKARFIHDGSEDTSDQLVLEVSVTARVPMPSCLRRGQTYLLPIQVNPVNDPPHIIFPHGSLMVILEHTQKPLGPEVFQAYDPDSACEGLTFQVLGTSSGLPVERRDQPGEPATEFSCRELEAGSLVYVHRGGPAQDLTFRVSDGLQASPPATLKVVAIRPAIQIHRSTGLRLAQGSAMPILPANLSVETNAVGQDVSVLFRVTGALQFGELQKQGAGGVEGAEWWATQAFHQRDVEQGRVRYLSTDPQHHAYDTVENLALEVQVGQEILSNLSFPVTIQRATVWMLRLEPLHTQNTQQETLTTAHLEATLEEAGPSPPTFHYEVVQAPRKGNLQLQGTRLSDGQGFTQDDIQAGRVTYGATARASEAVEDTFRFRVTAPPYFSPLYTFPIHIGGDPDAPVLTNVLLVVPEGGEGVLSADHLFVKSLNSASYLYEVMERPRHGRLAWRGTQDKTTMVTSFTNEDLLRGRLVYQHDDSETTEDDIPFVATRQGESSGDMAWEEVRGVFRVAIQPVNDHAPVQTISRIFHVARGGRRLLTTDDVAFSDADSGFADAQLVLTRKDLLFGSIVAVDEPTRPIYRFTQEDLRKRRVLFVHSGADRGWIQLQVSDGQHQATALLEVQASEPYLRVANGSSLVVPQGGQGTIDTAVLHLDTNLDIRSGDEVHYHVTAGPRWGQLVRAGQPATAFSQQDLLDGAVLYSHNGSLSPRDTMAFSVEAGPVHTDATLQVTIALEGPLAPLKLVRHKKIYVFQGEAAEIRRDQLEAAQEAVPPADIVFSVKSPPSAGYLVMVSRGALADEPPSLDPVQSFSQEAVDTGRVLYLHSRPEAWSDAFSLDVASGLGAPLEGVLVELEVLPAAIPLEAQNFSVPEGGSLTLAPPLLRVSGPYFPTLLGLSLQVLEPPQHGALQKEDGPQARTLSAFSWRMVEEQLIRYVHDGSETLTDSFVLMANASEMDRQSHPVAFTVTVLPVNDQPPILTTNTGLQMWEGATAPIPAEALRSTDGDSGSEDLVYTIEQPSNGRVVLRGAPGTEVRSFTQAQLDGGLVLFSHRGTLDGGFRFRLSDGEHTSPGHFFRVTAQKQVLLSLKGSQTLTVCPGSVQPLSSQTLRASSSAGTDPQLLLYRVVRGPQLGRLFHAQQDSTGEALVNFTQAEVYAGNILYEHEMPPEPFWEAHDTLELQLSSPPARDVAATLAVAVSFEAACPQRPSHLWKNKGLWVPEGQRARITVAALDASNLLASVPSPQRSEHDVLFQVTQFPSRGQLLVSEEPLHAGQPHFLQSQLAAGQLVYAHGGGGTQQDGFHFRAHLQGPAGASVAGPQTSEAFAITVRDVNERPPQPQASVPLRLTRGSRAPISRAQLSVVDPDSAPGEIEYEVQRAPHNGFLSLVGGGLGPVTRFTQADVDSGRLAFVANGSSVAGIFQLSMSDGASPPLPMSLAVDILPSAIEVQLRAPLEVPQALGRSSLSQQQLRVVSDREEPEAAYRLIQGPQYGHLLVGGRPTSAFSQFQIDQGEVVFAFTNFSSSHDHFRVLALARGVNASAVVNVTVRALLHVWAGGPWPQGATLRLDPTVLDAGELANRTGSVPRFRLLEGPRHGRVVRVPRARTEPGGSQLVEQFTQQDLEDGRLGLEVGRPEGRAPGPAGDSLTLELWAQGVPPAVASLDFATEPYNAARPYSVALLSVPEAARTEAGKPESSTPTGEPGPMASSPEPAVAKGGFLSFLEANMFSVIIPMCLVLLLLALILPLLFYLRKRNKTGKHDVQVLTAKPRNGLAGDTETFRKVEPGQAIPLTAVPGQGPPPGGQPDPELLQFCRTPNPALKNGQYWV

B1: “2+1 IgG Crossfab, inverted”; CL/CH1 exchange (CH1A1A/V9) (anti-CEA/anti-huCD3) (bispecific antibody)
chain 1: QVQLVQSGAEVKKPGASVKVSCKASGYTFTEFGMNWVRQAPGQGLEWMGWINTKTGEATYVEEFKGRVTFTTDTSTSTAYMELRSLRSDDTAVYYCARWDFAYYVEAMDYWGQGTTVTVSSASTKGPSVFPLAPSSKSTSGGTAALGCLVKDYFPEPVTVSWNSGALTSGVHTFPAVLQSSGLYSLSSVVTVPSSSLGTQTYICNVNHKPSNTKVDKKVEPKSCDKTHTCPPCPAPEAAGGPSVFLFPPKPKDTLMISRTPEVTCVVVDVSHEDPEVKFNWYVDGVEVHNAKTKPREEQYNSTYRVVSVLTVLHQDWLNGKEYKCKVSNKALGAPIEKTISKAKGQPREPQVCTLPPSRDELTKNQVSLSCAVKGFYPSDIAVEWESNGQPENNYKTTPPVLDSDGSFFLVSKLTVDKSRWQQGNVFSCSVMHEALHNHYTQKSLSLSPGK
chain 2: DIQMTQSPSSLSASVGDRVTITCKASAAVGTYVAWYQQKPGKAPKLLIYSASYRKRGVPSRFSGSGSGTDFTLTISSLQPEDFATYYCHQYYTYPLFTFGQGTKLEIKRTVAAPSVFIFPPSDEQLKSGTASVVCLLNNFYPREAKVQWKVDNALQSGNSQESVTEQDSKDSTYSLSSTLTLSKADYEKHKVYACEVTHQGLSSPVTKSFNRGEC
chain 3: DIQMTQSPSSLSASVGDRVTITCRASQDIRNYLNWYQQKPGKAPKLLIYYTSRLESGVPSRFSGSGSGTDYTLTISSLQPEDFATYYCQQGNTLPWTFGQGTKVEIKSSASTKGPSVFPLAPSSKSTSGGTAALGCLVKDYFPEPVTVSWNSGALTSGVHTFPAVLQSSGLYSLSSVVTVPSSSLGTQTYICNVNHKPSNTKVDKKVEPKSC
chain 4: not shown
notes: also called CL/CH1-exchange construct
Turning to B1, the EC50 (commonly the midpoint of the concentration-response curve) amounted to 3.9 nM in assay [1] and 6.7 nM in [3]. The “EC50 of killing (LDH release) of LS-174T cells, human PBMCs, E:T 10:1, 28 h” value in assay [2] stood at 0.673 nM. Moreover, in assay [2], the “EC50 of killing (LDH release) of MKN-45 cells, human PBMCs, E:T 10:1, 28 h” value stood at 0.115 nM.

B2: “2+1 IgG Crossfab, inverted”; VL/VH exchange (CH1A1A/V9) (anti-CEA/anti-huCD3) (bispecific antibody)
chain 1: EVQLVESGGGLVQPGGSLRLSCAASGYSFTGYTMNWVRQAPGKGLEWVALINPYKGVSTYNQKFKDRFTISVDKSKNTAYLQMNSLRAEDTAVYYCARSGYYGDSDWYFDVWGQGTLVTVSSASVAAPSVFIFPPSDEQLKSGTASVVCLLNNFYPREAKVQWKVDNALQSGNSQESVTEQDSKDSTYSLSSTLTLSKADYEKHKVYACEVTHQGLSSPVTKSFNRGEC
chain 2: not shown
chain 3: B1 chain 1
chain 4: B1 chain 2
notes: also called VL/VH-exchange construct
In turn, B2 had an EC50 in assay [4] of 9.3 nM. Besides, in assay [2], the “EC50 of killing (LDH release) of LS-174T cells, human PBMCs, E:T 10:1, 28 h” value was 0.955 nM and the “EC50 of killing (LDH release) of MKN-45 cells, human PBMCs, E:T 10:1, 28 h” value came out at 0.243 nM. The molecule further yielded an EC50 in assay [5] of 4.6 nM.

B3: “2+1 IgG scFab, wt” (anti-MCSP/anti-huCD3) (bispecific antibody)
chain 1: DIVLTQSPSSLSASLGDRVTISCSASQGIRNYLNWYQQRPDGTVKLLIYYTSSLHSGVPSRFSGSGSGTDYSLTISNLEPEDIATYYCQQYSKLPWTFGGGTKLEIKRTVAAPSVFIFPPSDEQLKSGTASVVCLLNNFYPREAKVQWKVDNALQSGNSQESVTEQDSKDSTYSLSSTLTLSKADYEKHKVYACEVTHQGLSSPVTKSFNRGEC
chain 2: not shown
chain 3: not shown
notes: Wild-type Fc domain; vectors transfected 1:2:1 (heavy chain : light chain : heavy chain-scFab); also called Fc-wt; copies: 2 + 1 + 1
For the molecule B3, the Kd – broadly, the free concentration of one partner at which half of the binding sites on the other are occupied at equilibrium, for simple one-to-one binding – in [6] was found to be 576 nM; in assay [7], 1200 nM; in assay [8], 3470 nM; in assay [9], 1500 nM; in [10], 600 nM.

B4: “2+1 IgG scFab, LALA” (anti-MCSP/anti-huCD3) (bispecific antibody)
chain 1: B3 chain 1
chain 2: not shown
chain 3: EVQLQESGPGLVKPSQSLSLTCSVTGYSITSGYYWNWIRQFPGNKLEWMGYITYDGSNNYNPSLKNRISITRDTSKNQFFLKLNSVTTEDTATYYCADFDYWGQGTTLTVSSASTKGPSVFPLAPSSKSTSGGTAALGCLVKDYFPEPVTVSWNSGALTSGVHTFPAVLQSSGLYSLSSVVTVPSSSLGTQTYICNVNHKPSNTKVDKKVEPKSCDKTHTCPPCPAPEAAGGPSVFLFPPKPKDTLMISRTPEVTCVVVDVSHEDPEVKFNWYVDGVEVHNAKTKPREEQYNSTYRVVSVLTVLHQDWLNGKEYKCKVSNKALPAPIEKTISKAKGQPREPQVCTLPPSRDELTKNQVSLSCAVKGFYPSDIAVEWESNGQPENNYKTTPPVLDSDGSFFLVSKLTVDKSRWQQGNVFSCSVMHEALHNHYTQKSLSLSPGK
notes: also called Fc-LALA; copies: 2 + 1 + 1
With B4, the EC50 (read off the curve) (commonly the concentration needed to bring the measured effect to its halfway point) in assay [11] was about 0.06 nM. In [10], this molecule registered a Kd of 2130 nM.
